Results published in PMC6367351 (Nature Communications, 2019).
Positions count from the first letter of the chain named. One block for each molecule: values may come before it. Where no end group is shown, it is not given here.

Legend:
[1] = system: ScMinElp3 (Methanocaldococcus infernus / Saccharomyces cerevisiae chimera); assay: MST; settings: mean of 229, 162, 75; EMSA: 25 C 30 min, 6% native PAGE at 4 C; tRNA stored in 20 mM HEPES pH 7.5, 150 mM NaCl, 5 mM DTT, 1 mM MgCl2; MST buffer not given in material
[2] = target: T1, MinElp3 (Methanocaldococcus infernus, UniProt D5VRB9 1-534); assay: MST; settings: EMSA: 25 C 30 min, 6% native PAGE at 4 C, tRNA stored in 20 mM HEPES pH 7.5, 150 mM NaCl, 5 mM DTT, 1 mM MgCl2, MST buffer not given in material
T1 sequence: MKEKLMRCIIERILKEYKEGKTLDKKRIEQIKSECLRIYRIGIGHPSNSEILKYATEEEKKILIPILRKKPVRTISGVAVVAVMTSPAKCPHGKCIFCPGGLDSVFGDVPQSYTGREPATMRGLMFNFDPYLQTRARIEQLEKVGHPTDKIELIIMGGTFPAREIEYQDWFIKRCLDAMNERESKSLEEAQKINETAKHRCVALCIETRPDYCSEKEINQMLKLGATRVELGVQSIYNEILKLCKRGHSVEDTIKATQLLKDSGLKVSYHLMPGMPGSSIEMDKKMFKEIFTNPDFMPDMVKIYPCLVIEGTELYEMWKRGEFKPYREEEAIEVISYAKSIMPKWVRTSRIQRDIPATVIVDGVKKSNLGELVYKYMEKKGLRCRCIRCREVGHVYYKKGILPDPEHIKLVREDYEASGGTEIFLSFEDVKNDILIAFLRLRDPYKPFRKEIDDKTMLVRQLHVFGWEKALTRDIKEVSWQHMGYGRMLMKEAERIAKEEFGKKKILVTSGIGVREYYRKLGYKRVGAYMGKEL

[3] = system: HsMinElp3 (Methanocaldococcus infernus / Homo sapiens chimera); assay: MST; settings: mean of 180, 141, 108; EMSA: 25 C 30 min, 6% native PAGE at 4 C; tRNA stored in 20 mM HEPES pH 7.5, 150 mM NaCl, 5 mM DTT, 1 mM MgCl2; MST buffer not given in material
[4] = system: DmcElp3 (Dehalococcoides mccartyi); assay: MST; settings: EMSA: 25 C 30 min, 6% native PAGE at 4 C; tRNA stored in 20 mM HEPES pH 7.5, 150 mM NaCl, 5 mM DTT, 1 mM MgCl2; MST buffer not given in material
[5] = system: MinElp3Δ1-19 (Methanocaldococcus infernus); assay: MST; settings: legend omits CCA; wt data identical to the CCA set; EMSA: 25 C 30 min, 6% native PAGE at 4 C; tRNA stored in 20 mM HEPES pH 7.5, 150 mM NaCl, 5 mM DTT, 1 mM MgCl2; MST buffer not given in material
[6] = system: MinElp3Δ1-41 (Methanocaldococcus infernus); assay: MST; settings: legend omits CCA; wt data identical to the CCA set; EMSA: 25 C 30 min, 6% native PAGE at 4 C; tRNA stored in 20 mM HEPES pH 7.5, 150 mM NaCl, 5 mM DTT, 1 mM MgCl2; MST buffer not given in material
[7] = target: T2, MinElp3 (Methanocaldococcus infernus, UniProt D5VRB9, K150A); assay: acetyl-CoA binding measurement (Supplementary Fig. 6b)
T2 construct: gene Metin_0452
T2 sequence (D5VRB9 1-534 K150A): T1 sequence with K150A

[8] = target: T3, MinElp3 (Methanocaldococcus infernus, UniProt D5VRB9, DEL466-486/INS466GSGSG); assay: ITC (also tRNA-induced acetyl-CoA hydrolysis); format: binding
T3 construct: gene Metin_0452
T3 sequence (D5VRB9 other isoform, or with tags, fused parts or gaps DEL466-486/INS466GSGSG): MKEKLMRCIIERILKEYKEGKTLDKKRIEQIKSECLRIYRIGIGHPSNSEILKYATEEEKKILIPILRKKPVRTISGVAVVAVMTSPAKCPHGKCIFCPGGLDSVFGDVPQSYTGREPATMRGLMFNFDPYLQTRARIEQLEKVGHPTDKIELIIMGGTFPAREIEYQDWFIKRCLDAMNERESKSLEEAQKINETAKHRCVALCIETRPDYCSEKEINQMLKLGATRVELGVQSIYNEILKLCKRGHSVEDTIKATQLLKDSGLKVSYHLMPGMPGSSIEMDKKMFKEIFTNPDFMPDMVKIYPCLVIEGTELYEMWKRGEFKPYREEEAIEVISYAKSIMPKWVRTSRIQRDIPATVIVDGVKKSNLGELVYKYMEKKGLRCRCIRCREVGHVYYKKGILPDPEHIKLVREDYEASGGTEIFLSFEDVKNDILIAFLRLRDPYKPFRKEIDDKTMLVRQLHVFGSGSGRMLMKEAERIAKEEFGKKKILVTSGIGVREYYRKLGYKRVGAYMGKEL

[9] = target: T4, DmcElp3 (Dehalococcoides mccartyi, UniProt A0A1C7D1B7); assay: acetyl-CoA hydrolysis by purified protein, induced by yeast bulk tRNA (weak); format: biochemical
T4 construct: gene cbdbA595
T4 sequence (A0A1C7D1B7 whole entry): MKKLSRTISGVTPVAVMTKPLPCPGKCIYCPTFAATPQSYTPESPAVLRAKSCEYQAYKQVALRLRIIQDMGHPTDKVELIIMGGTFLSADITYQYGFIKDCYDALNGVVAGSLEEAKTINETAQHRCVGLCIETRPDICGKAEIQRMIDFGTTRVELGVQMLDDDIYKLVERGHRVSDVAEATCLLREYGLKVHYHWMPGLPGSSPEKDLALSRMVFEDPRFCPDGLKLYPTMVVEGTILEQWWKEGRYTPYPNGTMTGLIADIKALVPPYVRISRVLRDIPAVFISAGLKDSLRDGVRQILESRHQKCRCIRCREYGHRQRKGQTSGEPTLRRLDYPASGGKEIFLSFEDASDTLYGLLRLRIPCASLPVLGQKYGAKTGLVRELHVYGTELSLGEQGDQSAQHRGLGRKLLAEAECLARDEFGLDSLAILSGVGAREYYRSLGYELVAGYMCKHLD

[10] = target: T5, MinElp3 (Methanocaldococcus infernus, UniProt D5VRB9); assay: ITC (also tRNA-induced acetyl-CoA hydrolysis); format: binding
T5 construct: gene Metin_0452; full length
T5 sequence (D5VRB9 1-534): T1 sequence

[11] = target: T6, MinElp3 (Methanocaldococcus infernus) (UniProt D5VRB9); assay: MST; settings: EMSA: 25 C 30 min, 6% native PAGE at 4 C; tRNA stored in 20 mM HEPES pH 7.5, 150 mM NaCl, 5 mM DTT, 1 mM MgCl2; MST buffer not given in material
T6 sequence: T1 sequence

[12] = target: the molecule itself; assay: SEC; S200 gel filtration, 20 mM HEPES pH 7.5, 150 mM NaCl, 5 mM DTT; aerobic purification; masses of the monomeric forms confirmed by SDS-PAGE and light scattering (RALS and LALS)
[13] = target: T7, Methanocaldococcus infernus Elp3, full length (Methanocaldococcus infernus, UniProt D5VRB9 1-534); assay: ITC
T7 chain: T1 sequence

[14] = target: T1, MinElp3; assay: EMSA; EMSA: 25 C 30 min, 6% native PAGE at 4 C; tRNA stored in 20 mM HEPES pH 7.5, 150 mM NaCl, 5 mM DTT, 1 mM MgCl2; MST buffer not given in material; settings: protein: recombinant; tags: GST tag cleaved (TEV); label: Cy5; hairpin

Molecule: (Dmc)tRNAGluUUC(CCA)
Kd [1]: 155 nM
Kd [2]: 50 nM
Kd [3]: 143 nM
Kd [4]: 1410 nM
Kd [5]: 210 nM
Kd [6]: 980 nM

Molecule: CC(=O)SCCNC(=O)CCNC(=O)[C@H](O)C(C)(C)COP(=O)(O)OP(=O)(O)OC[C@H]1O[C@@H](n2cnc3c(N)ncnc32)[C@H](O)[C@@H]1OP(=O)(O)O [acetyl-CoA]
acetyl-CoA binding measurement (Supplementary Fig. 6b) [7]: As K150A shows normal tRNA and acetyl-CoA binding, we believe that it might be directly involved the hydrolysis reaction
Kd [8]: 108000 ± 55800 nM
acetyl-CoA hydrolysis by purified protein, induced by yeast bulk tRNA (weak) [9]: DmcElp3, on the other hand, showed ~5-times reduced-induced hydrolysis activity
Kd [10]: 135000 ± 55300 nM

Molecule: (Sc)tRNASerUGA
Kd ([2]; replicates 322, 539, 293 nM): 370 nM

Molecule: (Sc)tRNACysGCA
Kd ([2]; replicates 240, 261, 280 nM): 260 nM

Molecule: GCUCGUAUGGCGCAGUGGUAGCGCAGCAGAUUGCAAAUCUGUUGGUCCUUAGUUCGAUCCUGAGUGCGAGCUGCGUCUUCCCAUGGGUGUAUUCGGUCG [(Sc)tRNACysGCA]
Kd [11]: 260 nM

Molecule: (Dmc)tRNAGluUUC
Kd ([2]; mean of 495, 434, 596): 508 nM

B1: MinElp3 Δ1–41 (domain or fragment, Methanocaldococcus infernus, UniProt D5VRB9 42-534, looked up)
chain: GIGHPSNSEILKYATEEEKKILIPILRKKPVRTISGVAVVAVMTSPAKCPHGKCIFCPGGLDSVFGDVPQSYTGREPATMRGLMFNFDPYLQTRARIEQLEKVGHPTDKIELIIMGGTFPAREIEYQDWFIKRCLDAMNERESKSLEEAQKINETAKHRCVALCIETRPDYCSEKEINQMLKLGATRVELGVQSIYNEILKLCKRGHSVEDTIKATQLLKDSGLKVSYHLMPGMPGSSIEMDKKMFKEIFTNPDFMPDMVKIYPCLVIEGTELYEMWKRGEFKPYREEEAIEVISYAKSIMPKWVRTSRIQRDIPATVIVDGVKKSNLGELVYKYMEKKGLRCRCIRCREVGHVYYKKGILPDPEHIKLVREDYEASGGTEIFLSFEDVKNDILIAFLRLRDPYKPFRKEIDDKTMLVRQLHVFGWEKALTRDIKEVSWQHMGYGRMLMKEAERIAKEEFGKKKILVTSGIGVREYYRKLGYKRVGAYMGKEL
notes: Elp3 of Methanocaldococcus infernus without residues 1-41; Truncations were cloned into pETM30 or pETM11; source: E. coli BL21 (DE3) CodonPlus-RIL, purified (GSTPrep, heparin, SEC)
binding result [12]: binds

B2: MinElp3 Δ1–54 (domain or fragment, Methanocaldococcus infernus, UniProt D5VRB9 55-534, looked up)
chain: ATEEEKKILIPILRKKPVRTISGVAVVAVMTSPAKCPHGKCIFCPGGLDSVFGDVPQSYTGREPATMRGLMFNFDPYLQTRARIEQLEKVGHPTDKIELIIMGGTFPAREIEYQDWFIKRCLDAMNERESKSLEEAQKINETAKHRCVALCIETRPDYCSEKEINQMLKLGATRVELGVQSIYNEILKLCKRGHSVEDTIKATQLLKDSGLKVSYHLMPGMPGSSIEMDKKMFKEIFTNPDFMPDMVKIYPCLVIEGTELYEMWKRGEFKPYREEEAIEVISYAKSIMPKWVRTSRIQRDIPATVIVDGVKKSNLGELVYKYMEKKGLRCRCIRCREVGHVYYKKGILPDPEHIKLVREDYEASGGTEIFLSFEDVKNDILIAFLRLRDPYKPFRKEIDDKTMLVRQLHVFGWEKALTRDIKEVSWQHMGYGRMLMKEAERIAKEEFGKKKILVTSGIGVREYYRKLGYKRVGAYMGKEL
notes: Elp3 of Methanocaldococcus infernus without residues 1-54; Truncations were cloned into pETM30 or pETM11; source: E. coli BL21 (DE3) CodonPlus-RIL, purified (GSTPrep, heparin, SEC)
binding result [12]: binds

Kd [13]: > 500000 nM
Molecule: YMPSDKTIGG-NH2 (not fully specified (N-terminus)) [alpha-tubulin peptide Tubulin(36–44) with an added N-terminal tyrosine]

Kd [13]: > 350000 nM
Molecule: YSTGGKAPRK-NH2 (not fully specified (N-terminus)) [histone H3 peptide H3(10–18) with an added N-terminal tyrosine]

B3: MinElp3 Δ1–19 (domain or fragment, Methanocaldococcus infernus, UniProt D5VRB9 20-534, looked up)
chain: GKTLDKKRIEQIKSECLRIYRIGIGHPSNSEILKYATEEEKKILIPILRKKPVRTISGVAVVAVMTSPAKCPHGKCIFCPGGLDSVFGDVPQSYTGREPATMRGLMFNFDPYLQTRARIEQLEKVGHPTDKIELIIMGGTFPAREIEYQDWFIKRCLDAMNERESKSLEEAQKINETAKHRCVALCIETRPDYCSEKEINQMLKLGATRVELGVQSIYNEILKLCKRGHSVEDTIKATQLLKDSGLKVSYHLMPGMPGSSIEMDKKMFKEIFTNPDFMPDMVKIYPCLVIEGTELYEMWKRGEFKPYREEEAIEVISYAKSIMPKWVRTSRIQRDIPATVIVDGVKKSNLGELVYKYMEKKGLRCRCIRCREVGHVYYKKGILPDPEHIKLVREDYEASGGTEIFLSFEDVKNDILIAFLRLRDPYKPFRKEIDDKTMLVRQLHVFGWEKALTRDIKEVSWQHMGYGRMLMKEAERIAKEEFGKKKILVTSGIGVREYYRKLGYKRVGAYMGKEL
notes: Elp3 of Methanocaldococcus infernus without residues 1-19; Truncations were cloned into pETM30 or pETM11; The general purification goes by a GST tag that is cleaved; source: E. coli BL21 (DE3) CodonPlus-RIL, purified (GSTPrep, heparin, SEC)
binding result [12]: binds

B4: MinElp3 Δ1–46 (domain or fragment, Methanocaldococcus infernus, UniProt D5VRB9 47-534, looked up)
chain: SNSEILKYATEEEKKILIPILRKKPVRTISGVAVVAVMTSPAKCPHGKCIFCPGGLDSVFGDVPQSYTGREPATMRGLMFNFDPYLQTRARIEQLEKVGHPTDKIELIIMGGTFPAREIEYQDWFIKRCLDAMNERESKSLEEAQKINETAKHRCVALCIETRPDYCSEKEINQMLKLGATRVELGVQSIYNEILKLCKRGHSVEDTIKATQLLKDSGLKVSYHLMPGMPGSSIEMDKKMFKEIFTNPDFMPDMVKIYPCLVIEGTELYEMWKRGEFKPYREEEAIEVISYAKSIMPKWVRTSRIQRDIPATVIVDGVKKSNLGELVYKYMEKKGLRCRCIRCREVGHVYYKKGILPDPEHIKLVREDYEASGGTEIFLSFEDVKNDILIAFLRLRDPYKPFRKEIDDKTMLVRQLHVFGWEKALTRDIKEVSWQHMGYGRMLMKEAERIAKEEFGKKKILVTSGIGVREYYRKLGYKRVGAYMGKEL
notes: Elp3 of Methanocaldococcus infernus without residues 1-46; Truncations were cloned into pETM30 or pETM11; source: E. coli BL21 (DE3) CodonPlus-RIL, purified (GSTPrep, heparin, SEC)
binding result [12]: binds

Molecule: GACAGACUUGAAAUCUGUU (structured_RNA) [ASL yeast tRNASerUGA]
binding result [14]: binds

B5: MinElp3 Δ1–68 (domain or fragment, Methanocaldococcus infernus, UniProt D5VRB9 69-534, looked up)
chain: KKPVRTISGVAVVAVMTSPAKCPHGKCIFCPGGLDSVFGDVPQSYTGREPATMRGLMFNFDPYLQTRARIEQLEKVGHPTDKIELIIMGGTFPAREIEYQDWFIKRCLDAMNERESKSLEEAQKINETAKHRCVALCIETRPDYCSEKEINQMLKLGATRVELGVQSIYNEILKLCKRGHSVEDTIKATQLLKDSGLKVSYHLMPGMPGSSIEMDKKMFKEIFTNPDFMPDMVKIYPCLVIEGTELYEMWKRGEFKPYREEEAIEVISYAKSIMPKWVRTSRIQRDIPATVIVDGVKKSNLGELVYKYMEKKGLRCRCIRCREVGHVYYKKGILPDPEHIKLVREDYEASGGTEIFLSFEDVKNDILIAFLRLRDPYKPFRKEIDDKTMLVRQLHVFGWEKALTRDIKEVSWQHMGYGRMLMKEAERIAKEEFGKKKILVTSGIGVREYYRKLGYKRVGAYMGKEL
notes: Elp3 of Methanocaldococcus infernus without residues 1-68; Truncations were cloned into pETM30 or pETM11; source: E. coli BL21 (DE3) CodonPlus-RIL, purified (GSTPrep, heparin, SEC)
binding result [12]: binds
